Data: patent US8710180B2, “VEGF-specific capture agents, compositions, and methods of using and making” (Indi Molecular, Inc., priority 2011, dated 2014)

Columns and labels:
[1] = molecular target: T1, VEGF165 (Homo sapiens, UniProt P15692); assay: direct solid-phase ELISA, binding of capture agents to VEGF165; details: immobilized VEGF165; KD estimated as concentration at half-maximal fluorescent emission
T1 construct: purchased Abcam ab56620
T1 sequence (P15692 27-191 isoform P15692-4): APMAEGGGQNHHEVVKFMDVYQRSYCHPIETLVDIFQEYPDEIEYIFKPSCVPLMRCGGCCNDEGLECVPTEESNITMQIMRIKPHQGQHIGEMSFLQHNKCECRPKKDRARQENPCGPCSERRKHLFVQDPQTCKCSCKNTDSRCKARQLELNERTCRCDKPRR
Protocol: The equilibrium dissociation constant (KD) for the capture agents may be estimated as the concentration corresponding to half-maximal fluorescent emission. Assaying multiple capture agents in parallel permits relative and absolute comparison of in vitro binding.
After washing each well with PBS (3×), the plate was filled with 5% non-fat dry milk in TBS (25 mM Tris, 150 mM NaCl, pH 7.25) containing 0.1% (v/v) Triton X-100 and blocked for 2 hours at 25° C. […] After washing all microwells with TBS/0.1%(v/v) Triton X-100 (5×), 0.1 μg/mL Streptavidin Poly-HRP conjugate (Pierce, Ill.) in TBS/0.1%(v/v) Triton X-100 was incubated for 30 minutes at 25° C. The plate was aspirated and washed with TBS/0.1% (v/v) Triton X-100 (5×), followed by TBS (5×), and then developed by adding QuantaRed^TM Enhanced Chemifluorescent HRP Substrate. Using an excitation wavelength of 535 nm, fluorescent emission at 595 nm was recorded by Beckman Coulter DTX880 photometer (Brea, Calif.) as a function of capture agent concentration. The titration curves were fit using a four-parameter regression curve fitting program (Origin 8.5, Northampton, Mass.).

[2] = molecular target: T1, VEGF165; assay: pull-down (immunoprecipitation) of VEGF165 from spiked buffer or human serum, Western blot and silver stain; format: binding; details: VEGF165-spiked buffer (B) vs 25% human serum (S)
Protocol: A pull-down assay was used to assess capture agent specificity for VEGF by measuring the ability of the capture agents to purify VEGF165 from buffer or complex media such as human serum. Capture agents were immobilized on streptavidin-functionalized magnetic beads, and the resultant resins were panned with VEGF165-spiked serum or buffer.
Pull-down detection of VEGF165 was performed using a modified immunoprecipitation technique that incorporated capture agents rather than antibody. […] A vehicle-only control (0.1% DMSO, v/v) accompanied each sample.
Proteins were captured by BSA-blocked Dynabeads® M-280 Streptavidin (Invitrogen, #112-05D) under rotation at 4° C. for 4 hours (100 μL of 50% slurry per pull-down condition). Beads were separated from the serum or buffer matrix by application of the DynaMag™-Spin magnet (Invitrogen, #123-20D), and captured proteins were eluted from the beads in 30 μL of reducing Laemmli buffer. Eluted samples were subjected to 12% SDS-PAGE separation at 200 V for 30 minutes in 1×TGS (25 mM Tris, 192 mM Glycine, 0.1% SDS (w/v), pH 8.3). Samples were subsequently electrophoretically transferred to a nitrocellulose membrane in 25 mM Tris, 192 mM Glycine, pH 8.3, containing 20% (v/v) methanol (Bio-Rad Laboratories, Hercules, Calif.) at 100 V for 45 minutes. […]

[3] = molecular target: T2, VEGF165 binding to Avastin® Fab (Homo sapiens, UniProt P15692); assay: competitive ELISA, inhibition of VEGF165 binding to Avastin Fab; details: 10 nM biotinylated VEGF165, Avastin Fab coated plate
T2 construct: biotin (chemical labelling)
T2 sequence (P15692 27-191 isoform P15692-4): T1 sequence (P15692 27-191 isoform P15692-4)
Protocol: Using an excitation wavelength of 535 nm, fluorescent emission at 595 nm was recorded by Beckman Coulter DTX880 photometer (Brea, Calif.) as a function of capture agent concentration. The titration curves were fit using a four-parameter regression curve fitting program (Origin 8.5, Northampton, Mass.). Concentrations of peptides corresponding to the midpoint absorbance of the titration curve were calculated and used as the IC50 values.

Kd [1]: ~15 nM
IC50 [3]: 400 nM
Substance: X-VEPNCDIHVMWEWECFERL-Tz4-lfrew-Tz4-eeird [Triligand 2]
capture of VEGF in buffer vs. serum [2]: captures equivalent amounts of VEGF in buffer and serum
